Assay results taken from patent US20250368729A1 (ATTRALUS, published 2025).
Changes are numbered by the printed parent chain. Names and notes keep the numbering of the source.

Columns and labels:
[1] = target: T1, synthetic amyloid-like fibrils of recombinant amyloidogenic λ6 variable domain protein (rVλ6Wil); experiment: EuLISA, substrate coated on plate
T1 construct: domain: λ6 variable domain; Fibrillar aggregate of many copies; also called rVλ6Wil fibrils; rVλ6Wil synthetic fibrils
Procedure: (§1) To perform europium-linked immunosorbent assays (EuLISAs), suspensions of rVλ6Wil fibrils (sonicated) were prepared at 0.83 μM in phosphate buffered saline (PBS). The fibrils were coated onto the wells of a 96-well microplate by adding 50 μL to each well. The plates dried at 37° C. overnight. The wells of the microplate were blocked by addition of Superblock (Thermofisher) (SB) using 200 µL/well, and left at 37° C. for 1 hour. The primary (test) antibody (i.e., the humanized antibody) were added, prepared in SB+0.05% tween 20 (SBT) in a 1:2 dilution series starting at 1 μM using 100 µL/well. Plates were then incubated for 1 hour at 37° C. After a wash step (plates were washed three times using PBS+0.05% tween 20), secondary antibody was added as a 1:3000 dilution of biotinylated goat anti-human IgG (Sigma) in SBT at 100 µL/well. The plates were incubated for 1 hour at 37° C. After another wash step, 100 µL/well of a 1:1000 dilution of europium/streptavidin (Perkin Elmer) in SBT was added. The plates were incubated for 1 hour at 37° C. After a final wash step, 100 μL/well of europium enhancement solution (Perkin Elmer) was added. Time-resolved fluorescence emission was detected using a microplate reader (Wallac).
(§2) Table 8, below, provides the results of the ELISAs measuring the ability of mIgp5, hIgG1, c11-1F4, m11-1F4, VH6/VL3-p5, VH9/VL4-p5, and VH9/VL4-p5R to bind rVλ6Wil fibrils, Per125 wtATTR extract, KEN hATTR extract, SHI ALλ liver extract, and TAL ALκliver extract. For each combination of antibody and substrate, the Log-transformed EC₅₀, EC₅₀, and maximal level of binding in the assay is shown. Conditions labeled “na” were not tested.

[2] = target: T2, Vκ4Len(1-22) monomer peptide (Homo sapiens (Human), UniProt P06312 21-42); experiment: pulldown, labelled antibody, peptide on beads
T2 construct: Free peptide as analyte in SPR; also called Vκ4(LEN(1-22) beads)
T2 peptide: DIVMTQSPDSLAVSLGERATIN

[3] = target: T1, synthetic amyloid-like fibrils of …; experiment: EuLISA, fibrils coated on plate (FIG. 13B)
[4] = target: T3, hIAPP fibril (UniProt P10997 34-70); experiment: pulldown, labelled antibody
T3 construct: Fibrillar aggregate
T3 chain (looked up): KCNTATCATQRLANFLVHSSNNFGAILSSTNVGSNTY

[5] = target: T1, synthetic amyloid-like fibrils of …; experiment: pulldown, labelled antibody
[6] = target: T4, Aβ(1-40) amyloid-like fibrils (UniProt P05067 672-711); experiment: pulldown, labelled antibody
T4 construct: domain: Aβ(1-40); Fibrillar aggregate; The numbers 1-40 count on Aβ, not on the precursor; also called Aβ(1-40) fibrils

[7] = target: T5, TAL ALκ liver amyloid extract; experiment: EuLISA, substrate coated on plate
T5 construct: Tissue amyloid extract; also called ALκTAL extract
Procedure: as §1, §2

[8] = target: T6, SHI ALλ liver amyloid extract; experiment: EuLISA, substrate coated on plate
T6 construct: Tissue amyloid extract; also called SHI AL liver extract; ALλ SHI extract
Procedure: as §1, §2

[9] = target: T7, Per125 wtATTR amyloid extract (human, UniProt P02766 21-147); experiment: EuLISA, substrate coated on plate
Procedure: as §1, §2

[10] = target: T8, Per125 wtATTR amyloid extract (human, UniProt P02766 21-147); experiment: EuLISA, extract coated on plate
[11] = target: T8, Per125 wtATTR amyloid extract; experiment: EuLISA, substrate coated on plate; remark: listed apart in the source
Procedure: as §1, §2

[12] = target: T8, Per125 wtATTR amyloid extract; experiment: pulldown, labelled antibody
[13] = target: T2, Vκ4Len(1-22) monomer peptide; experiment: SPR Biacore 8K, antibody immobilised, peptide as analyte
Procedure: The affinity of humanized anti-amyloid antibodies binding to Vκ4Len(1-22) (“Len(1-22) monomer”) monomer peptide—the natural ligand for the m11-1F4 antibody—was measured using a Biacore 8K surface plasmon resonance (SPR) system. Parental antibody m11-1F4 binds to an epitope present at the N-terminal of denatured kappa 4 light chain proteins. The Len (1-22) monomer is a peptide comprising this epitope, as described in International Application No. PCT/US2017/015905. Binding affinities of anti-amyloid antibodies incorporating the humanized heavy chain region VH9 and the humanized light chain VL4 were tested, including versions of VH9 and VL4 with additional mutations (Table 5).
All SPR data were processed using the Biacore 8K Evaluation software version 1.1. Flow cell 1 and blank injections of buffer in each cycle were used as double reference for Response Units subtraction.
Table 7 provides the results of SPR assays measuring the binding of the humanized anti-amyloid antibodies to a Len(1-22) Monomer peptide. Specifically, the humanized VH9 and VL4 sequences were tested with or without additional amino acid substitutions, as indicated in the “Ligand” column of Table 7.

[14] = target: T1, synthetic amyloid-like fibrils of …; experiment: pulldown, 125I-labelled antibody
[15] = target: Per253 wild type (wt) ATTR amyloid extract (human, UniProt P02766 21-147); experiment: pulldown, labelled antibody
[16] = target: T5, TAL ALκ liver amyloid extract; experiment: pulldown, labelled antibody
[17] = target: T9, HIG ALκ1 amyloid extract; experiment: pulldown, labelled antibody
T9 construct: Tissue amyloid extract; also called ALκ HIG extract

[18] = target: T6, SHI ALλ liver amyloid extract; experiment: pulldown, labelled antibody
[19] = target: T7, Per125 wtATTR amyloid extract; experiment: pulldown, labelled antibody; remark: listed apart in the source
[20] = target: T10, TYL ALλ amyloid extract; experiment: pulldown, labelled antibody
T10 construct: Tissue amyloid extract; also called ALλ TYL extract

T4 sequence (P05067 672-711 limits assumed): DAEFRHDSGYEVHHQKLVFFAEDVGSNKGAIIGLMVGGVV

B1: VH6/VL3-p5 (humanized VH6/VL3 with peptide p5 fused to the N-terminal of the light chain) (antibody, V domains shown)
VH: QVQLQESGPGLVKPSETLSLTCTVSGFSLSSYGVSWVRQPPGKGLEWLGVIWGDGSTNYHPNLMSRLSISKDTSKNQFSLKLSSVTAADTATYYCVTLDYWGQGTSVTVSS
VL: DVVMTQSPLSLPVTLGQPASISCRSSQSLVHRNGNTYLHWYLQRPGQSPRLLIYKVSNRFSGVPDRFSGSGSGTDFTLKISRVEAEDVGLYFCFQTTYVPNTFGGGTKLEIK
With B1 the EC50 [1] was 3.49 nM, the LogEC50 [1] was 8.46 -log(M) and the “Max (maximal level of binding)” value [1] was 65.3. The percent bound [2] was 54.9%, the EC50 [3] was 3 nM and the “fold enhancement of binding over VH6/VL3 (based on EC50)” value [3] was ~30 fold. It also gave a percent bound [4] of 4.82%, a percent bound [5] of 22.5% and a percent bound [6] of 20.6%.

B2: chimeric (c) 11-1F4 (antibody, V domains shown)
VH: QVQLKESGPGLVAPSQSLSITCTVSGFSLSSYGVSWVRQPPGKGLEWLGVIWGDGSTNYHPNLMSRLSISKDISKSQVLFKLNSLQTDDTATYYCVTLDYWGQGTSVTVSS
VL: B1 VL with S7T, T14S, Q17D, P18Q, R44K, R50K, V88L
notes: also called ch11-1F4; ci1-1F4
B2 was tested, and the “Max (maximal level of binding)” value [1] was 63.9, the “Max (maximal level of binding)” value [7] was ~17800 and the “Max (maximal level of binding)” value [8] was 51.3. The “Max (maximal level of binding)” value [9] was 71.1.

B3: murine antibody m11-1F4 (antibody, V domains shown)
VH: B2 VH
VL: B1 VL with S7T, T14S, Q17D, P18Q, R44K, R50K, V88L
notes: Murine IgG1 kappa; also called murine 11-1F4; m1-1F4
In the case of B3, the “Max (maximal level of binding)” value [1] is reported as 184, the “Max (maximal level of binding)” value [7] is reported as ~35100 and the “Max (maximal level of binding)” value [8] is reported as ~1510. For the same binder, the “Max (maximal level of binding)” value [9] was 209.

B4: VH6/VL3-p5R (humanized VH6/VL3 with peptide p5R fused to the N-terminal of the light chain) (antibody, V domains shown)
VH: B1 VH
VL: B1 VL
For B4, the EC50 [10] was 85 nM, the EC50 [3] was 3 nM and the “fold enhancement of binding over VH6/VL3 (based on EC50)” value [3] was ~30 fold.

B5: VH9/VL4-p5R (humanized VH9/VL4 with peptide p5R fused to the N-terminal of the light chain) (antibody, V domains shown)
VH: B1 VH with V37I, L67V, S68T, K71V, N76S, F78V, S79L, L80F, T92V, V96A
VL: B1 VL with Y41F, L42Q, L90V
For B5, the EC50 [1] was 3.91 nM, the LogEC50 [1] was 8.41 -log(M) and the “Max (maximal level of binding)” value [1] was 82.7. For the same binder, the EC50 [11] was 14 nM, the LogEC50 [11] was 7.86 -log(M) and the “Max (maximal level of binding)” value [11] was 55.7. For the same binder, the percent bound [2] was 50.2%, the percent bound [5] was 22.6% and the percent bound [12] was 1.12%.

B6: VH9/VL4-p5 (humanized VH9/VL4 with peptide p5 fused to the N-terminal of the light chain) (antibody, V domains shown)
VH: B1 VH with V37I, L67V, S68T, K71V, N76S, F78V, S79L, L80F, T92V, V96A
VL: B1 VL with Y41F, L42Q, L90V
In the case of B6, the EC50 [1] is reported as 4.05 nM, the LogEC50 [1] is reported as 8.39 -log(M) and the “Max (maximal level of binding)” value [1] is reported as 71. For the same binder, the EC50 [11] was 24.5 nM, the LogEC50 [11] was 7.61 -log(M) and the “Max (maximal level of binding)” value [11] was 58.1. The percent bound [2] was 54.4%, the percent bound [5] was 24.7% and the percent bound [12] was 1.33%.

B7: VH9 + VL4-G34V (antibody, V domains shown)
VH: B1 VH with V37I, L67V, S68T, K71V, N76S, F78V, S79L, L80F, T92V, V96A
VL: B1 VL with G34V, Y41F, L42Q, L90V
A Kd [13] of 35 nM, a koff [13] of 0.00146 s⁻¹ and a kon [13] of 41800 M⁻¹ s⁻¹ were found for B7 in this work.

B8: murine Ig-peptide fusion Igp5 (murine 11-1F4 with peptide p5 fused to the N-terminus of the light chain) (antibody)
heavy: B2 VH
light: AQAGQAGQAQGGGYSKAQKAQAKQAKQAQKAQKAQAKQAKQVTPTVDVVMTQTPLSLPVSLGDQASISCRSSQSLVHRNGNTYLHWYLQKPGQSPKLLIYKVSNRFSGVPDRFSGSGSGTDFTLKISRVEAEDLGLYFCFQTTYVPNTFGGGTKLEIK
notes: Antibody-peptide fusion; unlabelled in the EuLISA; also called mIgp5; mIgG-p5; not shown: murine 11-1F4 (IgG1) CH1 followed by murine IgG2a CH2-CH3 (pFUSE-mIgG2A-Fc); murine 11-1F4 kappa constant region (CL)
In the case of B8, the EC50 [1] is reported as 2.88 nM, the LogEC50 [1] is reported as 8.54 -log(M) and the “Max (maximal level of binding)” value [1] is reported as 58.5. For the same binder, the EC50 [7] was 3.37 nM, the LogEC50 [7] was 8.47 -log(M) and the “Max (maximal level of binding)” value [7] was 24.6. The EC50 [8] was 2.94 nM, the LogEC50 [8] was 8.53 -log(M) and the “Max (maximal level of binding)” value [8] was 24. The EC50 [9] was 6.24 nM, the LogEC50 [9] was 8.21 -log(M) and the “Max (maximal level of binding)” value [9] was 31.7. The “fold higher binding than murine 11-1F4” value [14] was 21 fold, the percent bound [5] was 71% and the percent bound [15] was 17%. The percent bound [16] was 37%, the percent bound [17] was 10% and the percent bound [18] was 34%. It also gave a percent bound [19] of 31% and a percent bound [20] of 21%.
